B1: ZmACN26159: GH3 protein, accession ACN26159 (protein)
chain: MTICSSEEIIDEFELLTRDARRVQQDTLRKILELNGDAEYLNRFNLGRRTDSKSFKSCIPLCVHSDIESYIQRIADGDDSPVLTGKPITSLSLSSGTTQGKPKFLPFNDELLESTFQIFRTSYAFRNREYPIVNGKALQFVYGSKQVFTQGGILAATATTNLYRSQRFKEAMKDVMTQCCSPDEVIFGPDFHQSLYCHLLCGLINSDEVQFVFSPFAHSLVHAFHSLEEVWEDLCADIRDGVLSKRVTAPSIRQAVSKILRPNPELASSIYIKCQSLSNWYGVIPTLWPNVKYIYGIMTGSMEPYLKKLRHYAGHLPLLSADYGASEGWVGSNINPTLPPEEVTYAVLPNIAYFEFIPLEKPKWEETEICSSVHYIESEPVGLTEVEVGKIYEVVITNFAGLYRYRLGDIVKIAGFHNATPELQFICRRSLVLSVNIDKNTEKDLQLAVEAAEKLLAAEKLEVVDFTSLVDRSSEPGHYVIFWELSSDDGASEDVLSGCASCMDLAFADAGYVGSRKTQTIGALELRVLRKGAFAQVMNHYLSLGGAVSQFKTPRFVSQSNSKVLQILSRNVTRSYFSTAYGL
modifications: Zea mays
B2: VvGH3-9: GH3 protein, accession XP_002280738.1 (protein, listed as Vitis vinifera)
chain: MLEKMEEFKAEKVIEEFEELTKDAGRVQRETLKKILEDNASAEYLQKQGLNGRTDPESYQACVPLVTHADLVPYIKRIADGDTSPVLTGKPIKTMSLSSGTTQGKQKYVPFNDELLETTLQIYRTSFAFRNREFPVRNGMALQFIYGSKQFKTEGGLFAGTATTNVFSSSQFKTTMKAIESPCCSPDEVIFGPDFRQSLYCHLLCGLIHHNEIQLVSSTFAHSIVYAFRTFEQVWEQLCADIQDGVLTKDVTVPSIRAVMSKLLKPNPELAEWIYKKCSGLSNWYGVIPALFPNVKYVYGIMTGSMEPYLKKLRHYAGDVPLLSADYGSSEGWIGANINPKLPPELATYAVLPNIGYFEFIPLRGSAEEDRQDKIQSSFESKPVGLTEVKIGEEYEIIVTNFAGLYRYRLGDVVKIAGFHNMTPELQFVCRRNLLLTINIDKNTEKDLQLAVEAAAEVLAPEKVEVIDFTSQVDKSTDPGHYVIFWEISGEVSVEVSSECCNCLDRSFVDAGYISSRKVNSIGPLELKLVRRGTFQKILDHYLGIGGVLSQYKTPRCVNPNNNMVLQILYSNVVKSHFSTAFG
B3: RcGH3-5: GH3 protein, accession EEF28472 (protein, listed as Ricinus communis)
chain: MTKNAERVQKETLKKILEENGSAEYLQNLGLDGRTDPESFKICVPICTHGDLEPYIQRIADGDSSPVLTGKPITTISLSSGTTQGKPKYVPFTDQLLDNTLQIFRTSFAYRNREFPLENGKALEFVFSSKQGKTKGGLAAGTATTNLFRNPNYKTALEELQFKSCSPREVIFGSDFHQSLYCHLLCGLIFREDIQFVFSTFAHSIVLAFRTFEQVWEELCDDIRNGELSSRITAPSIRTAMSHLLKPNAELADLIHTKCSGLSNWYGLIPELFPNAKYIYGIMTGSMEPYLKKLRHYAGELPLLSADYGASEGWIAANVNPLLPPELATFAVLPDIGYFEFIPLRRNGDHIYSEPKPIGLSDVKIGEEYEILVTNFAGFYRYRLGDVVKVMGFHNSTPELKFVCRRSLLLSINIDKNTEKDLQLVVEEAAKLLADEKLEVVDFSSLADRSTDPGHYVIFWEISGEPTAEVLQECCNCLDRSFLDAGYVTSRKVKAIGPLELRVVHRGTFQKILDHYLGLGAAVSQFKTPRCVGPANNVVSQILSNNVAKSYVSTAF
B4: VvGH3-7: GH3 protein, accession XP_002272560 (protein, listed as Vitis vinifera)
chain: MESAAGAESNGEHEIIGWFEDVSENTGYVQTQTLCRILELNSGVEYLKKWLGDINVQEMEASALESLYTSLVPLASHADLETYIQRIADGDTSPILTNQPITTLSLSSGTTEGRQKYVPFTRHSSQTTLQIFQLAAAYRSRVYPITPGRRILEFIYSSKQFKTKGGLIAGTATTHYFASEEFKIKQEKTKSFTCSPEEVISSGDYKQSTYCHLLLGLHFHDEVEFITSTFAYSIVQAFRTFEELWRNICSDIREGIVSSRISLPKVRKAVSDIISPNPGLASWIEASCKELEDKDWFGLIPKLWPNAKYVYSIMTGSMQPYLKKLRHYAGDLPLVSADYGSTESWIGANIDPSSPPENVTFAVIPTFSYFEFIPLYRQNQNCSSSIDDFIEDEPVPLSQVKIGQEYEIVLTTFTGLYRYRLGDVVEVAGFHKGTPKLNFICRRKLILTVNIDKNTEKDLQSVVEVGSQLLGKTKAELVDFTSHADLVKQPGHYIIYWEIKGEADDKVLSECCNEMDACFVDQGYIVSRKTHSIGPLELCIVERGTFKKILDHFIGKGAALSQFKTPRCTADEVLLRILNVCTIKRFHSTAYG
B5: SlGH3-1: GH3 protein, SL2.40ch01: 78555183-78557768 (protein, listed as Solanum lycopersicum)
chain: MLEKIEMKFDPEEVIEEFEALTKEAGKVQEETLKKILEENGSTVYLQQWGLNGRTDPEIFKSCVPLVTHKDLEPYIQRIADGDLSPVLTGKPITTISLSSGTTQGRPKFVPFNDELMESTMQIYKTSFAFRNREFPIENGKALQFIYSSKQFKTKGGLAAGTATTNVYRNAHFKKTMRAMQTPCCSPDEVIFGPDFHQSLYCHLLCGLIFRDEVQVVSSTFAHSIVHAFRTFEQVWEELVADIREGVISSRVTVPSMRSAIMKLLKPDPEQADSIYNKCSGLSNWYGLIPVLFPSARYIYGIMTGSMEPYLKKLRHYAGELPLLSADYGSSEGWIGANVNPKLPPELVTYAVLPNIGYFEFIPLRVNLDGLEPTPVGLAEVKLGEEYEIVVTNFAGLYRYRLGDVVKIKGFHNATPELQFICRSNLILSINIDKSTEKDLQLAVEAAARLLVDEKLEVVDFTSHANVATDPGHYVVFWELSGEASDETLQECCNCLDKSFVDAGYVGSRKVNVIGALELRVVKKGTFHKILDHFVGLGGAVSQFKTPRCVGQNNSRLLQILCYDVVKSYFSTAY

The nature of the first assay: LC-MS assay of GH3 conjugation of dicamba with Asp or Glu. It counts as biochemical. The conditions noted are these: LC-MS; dicamba with Asp. How it is done:
To detect and monitor the formation of acyl conjugates with 2,4-D or dicamba, a sensitive LC-MS method was developed using the respective amino acid conjugate standards. […] […] […] The supernatant was diluted 20× in water and then analyzed by LC-MS (AB Sciex 4000 QTrap coupled with Shimadzu Nexera UHPLC) using a Phenomenex Luna 3 μm Phenyl-Hexyl (00B-4256-Y0) column. The concentration of the conjugates was calculated based on the standards. Kinetic parameters were estimated by fitting initial velocity values to the Michaelis-Menten equation.
The GH3 superfamily conjugase activity analysis of IAA, 2,4-D or dicamba with Asp or Glu was done using LC-MS to analyze the final conjugate products as described in Example 1. Protein sequences of GH3 homologs (Table 3) were obtained from public databases (NCBI, http://www.ncbi.nlm.nih.gov/) by Blast analysis of AtGH3.17 protein sequence (accession # Q9FZ87). Coding sequences were designed for optimal expression in E. coli based on the protein sequences and synthesized. Synthesized coding sequences along with N-term his-tag coding sequences were cloned into a pET24a-based E. coli expression vector. The E. coli expression vectors were transformed into OverExpress C41(DE3) cells (Lucigen) for protein expression. Recombinant E. coli strains were inoculated into 5 ml LB media supplemented with 40 mg/L kanamycin and cultured overnight at 37° C. The overnight culture (0.5 mL) was inoculated into 50 mL LB medium plus 40 mg/L kanamycin and grown at 30° C. until OD600 reached 0.6. The cultures were induced with 0.2 mM IPTG at 16° C., 230 rpm overnight. Cells were harvested by centrifugation at 7,000 rpm for 10 mins. The cell pellet from 50 mL of cell culture was frozen and thawed twice and then lysed in 800 μL lysis buffer A (150 mM NaCl, 50 mM Tris-HCl pH 8.0, 5 mM MgCl2, 10% glycerol) plus 20 mM imidazole, 1 mM DTT, 0.2 mg/ml lysozyme, 1/200 protease inhibitor cocktail (EMD set3, EDTA free) and 1/2000 endonuclease. Lysate was then centrifuged at 13,000 rpm for 30 min at 4° C. Supernatant was loaded onto 200 μL Ni-NTA columns pre-equilibrated with buffer A with 20 mM imidazole at 4° C. Each column was then washed with (1) 2×800 μL of buffer A with 10 mM imidazole, (2) 2×800 μL of buffer A with 20 mM imidazole and (3) 2×200 μL of buffer A with 50 mM imidazole. Protein was eluted with 200 μL of buffer A with 250 mM imidazole. The concentration was measured by Bradford assay. Purified protein was used in conjugation reaction assays as described in example 1.
For the molecule B1, the “Detected auxin conjugates: Dicamba-Asp” value is listed as “No”.
On the same count and under the same terms, as for B2, the entry is “No”; as for B3, “No”.
On to B4, for which the “Detected auxin conjugates: Dicamba-Asp” value is given as “No”.
On the same count and under the same terms, the same measure for B5: “No”.

Staying with this assay, now noted: LC-MS; dicamba with Glu.
For the molecule B1, the “Detected auxin conjugates: Dicamba-Glu” value is “No”.
Same read-out and setting: the same measure for B2: “No”.
Still for that read-out and setting: as for B3, the entry is “No”.
Still for that read-out and setting: the same measure for B4: “No”; for B5: “No”.

The nature of a further assay: LC-MS assay of GH3 conjugation of IAA with Asp or Glu. The class given is biochemical. The conditions noted are these: LC-MS; IAA with Asp. Summed up: (§1)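 Rxn: 20 mM Tris-HCl pH 8.0, 5 mM MgCl2, 1 mM DTT, 5 mM ATP, 5 mM auxin, 5 mM Asp/Glu, 44–164 μg/mL purified His-GH3; 30° C., 3 h. MeOH quench, supernatant diluted 20×, LC-MS vs conjugate standards.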
As to B1, the “Detected auxin conjugates: IAA-Asp” value is on record as “No”.
With B2, the “Detected auxin conjugates: IAA-Asp” value was “No”.
For the molecule B3, the “Detected auxin conjugates: IAA-Asp” value is “Yes”.
For the molecule B4, the “Detected auxin conjugates: IAA-Asp” value is listed as “Yes”.
The same measure, in the same setting: as for B5, the entry is “Yes”.

Staying with this assay, now noted: LC-MS; IAA with Glu.
Take B1: the “Detected auxin conjugates: IAA-Glu” value is listed as “No”.
As for B2, the “Detected auxin conjugates: IAA-Glu” value was “No”.
The same measure, in the same setting: as for B3, the entry is “No”; as for B4, “No”; as for B5, “No”.

The nature of another assay: LC-MS assay of GH3 conjugation of 2,4-D with Asp or Glu. It counts as biochemical. Conditions: LC-MS; 2,4-D with Asp. Summed up: as §1
As to B1, the “Detected auxin conjugates: 2,4-D-Asp” value is “No”.
In the case of B2, the “Detected auxin conjugates: 2,4-D-Asp” value was “No”.
Still for that read-out and setting: the same measure for B3: “No”; for B4: “No”; for B5: “No”.

The same assay, now with this note: LC-MS; 2,4-D with Glu.
For the molecule B1, the “Detected auxin conjugates: 2,4-D-Glu” value is “No”.
Regarding B2, the “Detected auxin conjugates: 2,4-D-Glu” value is reported as “No”.
Take B3: the “Detected auxin conjugates: 2,4-D-Glu” value is “No”.
Same read-out and setting: as for B4, the entry is “No”; as for B5, “No”.

The values are drawn from US20150351390A1, “COMPOSITIONS AND METHODS FOR AUXIN-ANALOG CONJUGATION” (PIONEER HI-BRED INTERNATIONAL, INC., priority 2012, published 2015).
